# Data from the Human Domainome abundance scans (Beltran et al. 2025).
# ± gives the uncertainty stated by the source.
# B1: Zinc finger MYM-type protein 3, residues 405 to 444; numbered along this chain, Q14202 (parent)
# chain: DATRCSICQKTGEVLHEVSNGSVVHRLCSDSCFSKFRANK
# B2: Membrane-associated guanylate kinase, WW and PDZ domain-containing protein 2, residues 296 to 340; numbered along this chain, Q86UL8 (parent)
# chain: EDNEEPDPLPDNWEMAYTEKGEVYFIDHNTKTTSWLDPRLAKKAK
# Variants of: B1
# Assay: abundance fitness (aPCA) (normalised: wild type 0, dead -1); higher = more abundant; growth selection in yeast, the domain comes from the species named
# Conditions: Homo sapiens
row,Variant,abundance fitness
1,I7D,-0.376 ± 0.07
2,I7Y,0.079 ± 0.089
3,I7S,-0.269 ± 0.063
4,I7A,-0.325 ± 0.064
5,I7W,-0.218 ± 0.061
6,I7F,-0.13 ± 0.12
7,I7V,-0.037 ± 0.054
8,I7G,-0.12 ± 0.051
9,I7E,-0.332 ± 0.065
10,I7N,0.209 ± 0.11
11,I7L,-0.146 ± 0.054
12,I7K,-0.508 ± 0.098
13,I7P,-0.804 ± 0.14
14,S6P,-0.009 ± 0.073
15,S6L,-0.312 ± 0.06
16,S6F,-0.012 ± 0.078
17,S6E,-0.103 ± 0.065
18,S6Q,-0.285 ± 0.072
19,S6G,-0.252 ± 0.053
20,S6N,-0.218 ± 0.093
21,S6W,-0.182 ± 0.063
22,S6R,-0.228 ± 0.056
23,S6I,-0.021 ± 0.16
24,S6Y,0.052 ± 0.073
25,S6D,-0.302 ± 0.091

row,Variant,abundance fitness
1,S6M,-0.365 ± 0.093
2,S6V,-0.469 ± 0.059
3,S6A,0.104 ± 0.054
4,C8D,-0.895 ± 0.15
5,C8K,-0.999 ± 0.097
6,C8R,-0.787 ± 0.057
7,C8G,-0.86 ± 0.057
8,C8T,-0.61 ± 0.072
9,C8Y,-0.774 ± 0.15
10,C8I,-0.978 ± 0.2
11,C8E,-0.85 ± 0.074
12,C8N,-0.779 ± 0.15
13,C8L,-0.843 ± 0.078
14,C8V,-1.11 ± 0.067
15,C8F,-0.754 ± 0.13
16,C8Q,-0.993 ± 0.077
17,C8M,-1.21 ± 0.11
18,C8W,-1.19 ± 0.095
19,C8S,-0.927 ± 0.081
20,C8P,-0.912 ± 0.11
21,L15R,0.07 ± 0.052
22,L15P,-0.033 ± 0.069
23,L15S,0.047 ± 0.065
24,L15G,-0.153 ± 0.056
25,L15T,-0.141 ± 0.065

row,Variant,abundance fitness
1,L15I,0.001 ± 0.07
2,L15K,0.079 ± 0.065
3,L15V,-0.034 ± 0.055
4,L15E,-0.227 ± 0.062
5,L15N,-0.038 ± 0.15
6,L15H,0.017 ± 0.11
7,L15F,-0.092 ± 0.13
8,L15Q,0.102 ± 0.059
9,R4C,-0.012 ± 0.073
10,R4L,-0.32 ± 0.054
11,R4D,0 ± 0.081
12,R4W,-0.563 ± 0.066
13,R4N,0.122 ± 0.081
14,R4G,-0.219 ± 0.051
15,R4P,-0.335 ± 0.064
16,R4H,-0.039 ± 0.08
17,R4Y,0.079 ± 0.072
18,R4F,0.147 ± 0.11
19,R4V,-0.193 ± 0.057
20,R4A,-0.2 ± 0.056
21,R4T,-0.125 ± 0.064
22,R4S,-0.35 ± 0.062
23,R4I,0.211 ± 0.062
24,R4M,0.047 ± 0.058
25,R4E,-0.211 ± 0.067

# Variants of: B2
# Assay: as above
# Conditions: Homo sapiens
row,Variant,abundance fitness
1,A16C,-0.274 ± 0.089
2,A16E,-0.239 ± 0.062
3,G21P,-0.709 ± 0.16
4,G21I,-0.865 ± 0.25
5,G21K,-0.163 ± 0.084
6,G21E,-0.14 ± 0.054
7,G21F,-0.33 ± 0.086
8,N12M,-0.292 ± 0.072
9,N12E,-0.303 ± 0.12
10,E19R,-0.104 ± 0.041
11,E19I,-0.117 ± 0.1
12,E19D,-0.025 ± 0.086
13,E19T,0.018 ± 0.046
14,L36E,-0.111 ± 0.079
15,L36A,-0.117 ± 0.067
16,L36K,-0.012 ± 0.054
17,L36T,-0.127 ± 0.061
18,K42G,0.014 ± 0.046
19,V23G,-0.088 ± 0.066
20,V23L,-0.062 ± 0.072
21,D2S,0.068 ± 0.07
22,L40Q,0.024 ± 0.083
23,A44W,-0.118 ± 0.087

row,Variant,abundance fitness
1,E22L,-0.321 ± 0.063
2,E22V,-0.325 ± 0.048
3,E22R,-0.409 ± 0.048
4,K20S,0.002 ± 0.075
5,K20L,-0.078 ± 0.052
6,K20W,-0.267 ± 0.06
7,T30D,-0.324 ± 0.088
8,T32H,-0.434 ± 0.063
9,T32N,-0.353 ± 0.088
10,T32R,-0.269 ± 0.05
11,K45W,-0.01 ± 0.087
12,K45R,0.199 ± 0.23
13,K45S,0.076 ± 0.074
14,W13R,-0.642 ± 0.087
15,Y24T,-0.872 ± 0.097
16,D27A,-0.786 ± 0.12
17,D27C,-0.544 ± 0.13
18,D27I,-1.58 ± 0.32
19,T18I,-0.997 ± 0.14
20,T18W,-0.725 ± 0.11
21,T18A,-0.308 ± 0.061
22,T18Q,-0.849 ± 0.09
23,T18R,-0.91 ± 0.073

row,Variant,abundance fitness
1,T33N,-0.341 ± 0.077
2,T33D,-0.848 ± 0.067
3,T33S,-0.236 ± 0.045
4,T33G,-0.776 ± 0.043
5,T33C,0.021 ± 0.063
6,I26M,0.023 ± 0.16
7,I26Q,-0.259 ± 0.11
8,I26R,-0.379 ± 0.056
9,N3L,0.009 ± 0.045
10,N3R,0.157 ± 0.053
11,N3V,-0.042 ± 0.052
12,D11R,0.032 ± 0.043
13,D37V,-0.595 ± 0.048
14,D37M,-0.533 ± 0.071
15,D37T,-0.675 ± 0.055
16,A41R,-0.058 ± 0.077
17,M15H,-0.428 ± 0.15
18,M15W,-0.198 ± 0.092
19,M15P,-0.308 ± 0.085
20,K43N,-0.324 ± 0.42
21,N29R,-0.082 ± 0.05
22,N29D,-0.109 ± 0.089
23,E14D,-0.097 ± 0.23

row,Variant,abundance fitness
1,E14S,-0.083 ± 0.097
2,P10N,-0.465 ± 0.052
3,P10S,-0.47 ± 0.06
4,R39W,-0.607 ± 0.059
5,R39Y,-0.769 ± 0.15
6,S34E,-0.826 ± 0.12
7,E4C,-0.005 ± 0.1
8,E4Q,0.306 ± 0.11
9,E4V,0.027 ± 0.044
10,Y17D,-0.355 ± 0.066
11,Y17E,-0.42 ± 0.47
12,Y17N,-0.042 ± 0.15
13,F25L,-0.896 ± 0.064
14,F25V,-1.05 ± 0.08
15,P6Y,-0.017 ± 0.054
16,P6A,-0.001 ± 0.041
17,W35R,-0.362 ± 0.043
18,D7R,0.044 ± 0.058
19,D7E,-0.008 ± 0.056
20,D7G,0.104 ± 0.046
21,K31H,0.103 ± 0.11
22,H28F,-0.267 ± 0.18
23,H28G,-0.431 ± 0.044
